# Measurements: patent US20210380679A1 (INHIBRX BIOSCIENCES, published 2021)
# T1: human DLL3 (Delta-like ligand 3) (human, UniProt Q9NYJ7 27-618)
# T1 construct: endogenous on SHP-77 cells; also called cell-surface DLL3
# T1 sequence: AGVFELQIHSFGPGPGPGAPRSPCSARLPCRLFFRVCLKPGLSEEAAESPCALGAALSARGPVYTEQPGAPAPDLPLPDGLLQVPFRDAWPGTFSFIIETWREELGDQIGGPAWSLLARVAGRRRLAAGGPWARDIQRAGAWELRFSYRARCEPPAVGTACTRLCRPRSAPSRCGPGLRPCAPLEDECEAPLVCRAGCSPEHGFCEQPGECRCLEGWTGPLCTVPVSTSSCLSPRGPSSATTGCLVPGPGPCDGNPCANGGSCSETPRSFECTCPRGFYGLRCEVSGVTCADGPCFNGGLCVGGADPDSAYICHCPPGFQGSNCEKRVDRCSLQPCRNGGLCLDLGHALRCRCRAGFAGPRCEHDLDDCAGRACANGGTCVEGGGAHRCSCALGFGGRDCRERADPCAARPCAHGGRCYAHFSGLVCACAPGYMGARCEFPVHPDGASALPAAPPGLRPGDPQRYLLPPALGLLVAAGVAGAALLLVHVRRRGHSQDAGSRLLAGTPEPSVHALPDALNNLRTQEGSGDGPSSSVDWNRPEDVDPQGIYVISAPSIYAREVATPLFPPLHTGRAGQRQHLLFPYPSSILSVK
# B1: hz10D9v4 (Fc fusion)
# VHH: EVQLVESGGGEVQPGGSLRLSCAASGSILSINAMGWYRQAPGKQREMVAGFTGDTNTIYAESVKGRFTISRDNAKNTVYLQMSSLRAEDTAVYYCAADVQLFSRDYEFYWGQGTLVTVKP
# notes: tested as VHH-human Fc; Fc not specified
# B2: hz10D9v5 (Fc fusion)
# VHH: EVQLVESGGGEVQPGGSLRLSCAASGSILSINAMGWYRQAPGKQRELVAGFTGDTNTIYAESVKGRFTISRDNAKNTVYLQMSSLRAEDTAVYYCAADVQLFSRDYEFYWGQGTLVTVKP
# notes: as for B1
# B3: hz10D9v6 (Fc fusion)
# VHH: EVQLVESGGGEVQPGGSLRLSCAASGSILSINAMGWYRQPPGKQRELVAGFTGDTNTIYAESVKGRFTISRDNAKNTVYLQMSSLRAEDTAVYYCAADVQLFSRDYEFYWGQGTLVTVKP
# notes: as for B1
# B4: L3G3 (Fc fusion)
# VHH: QVQLVQSGGGLVQAGGSLRLSCAASGSIFSINAMGWYREAPGKQRELVAGFTGDGMTKYAESVKGRFTFSRDNAKNTVYLQMNSLKPEDTGVYYCAADVFTDRDHVDWYWGQGTQVTVKP
# notes: as for B1
# B5: hz3G3v2 (Fc fusion)
# VHH: EVQLVESGGGEVQPGGSLRLSCAASGSIFSINAMGWYREAPGKQRELVAGFTGDGMTKYAESVKGRFTISRDNAKNTVYLQMSSLRAEDTAVYYCAADVFTDRDHVDWYWGQGTLVTVKP
# notes: as for B1
# B6: hz3G3v3 (Fc fusion)
# VHH: EVQLVESGGGEVQPGGSLRLSCAASGSIFSINAMGWYRQAPGKQRELVAGFTGDGMTKYAESVKGRFTFSRDNAKNTVYLQMSSLRAEDTAVYYCAADVFTDRDHVDWYWGQGTLVTVKP
# notes: as for B1
# B7: hz3G3v4 (Fc fusion)
# VHH: EVQLVESGGGEVQPGGSLRLSCAASGSIFSINAMGWYRQAPGKQRELVAGFTGDGMTKYAESVKGRFTISRDNAKNTVYLQMSSLRAEDTGVYYCAADVFTDRDHVDWYWGQGTLVTVKP
# notes: as for B1
# B8: hz5A7v1 (Fc fusion)
# VHH: EVQLVESGGGEVQPGGSLRLSCAASGSDFSINAIGWYRQAPGKQRDMVAGFTGDGVTTYAESVKGRFTISRDNAKNTVYLQMSSLRAEDTAVYYCAADVKIGGDYEWFWGQGTLVTVKP
# notes: as for B1
# B9: L5A7 (Fc fusion)
# VHH: EVQLVQSGGGLVQPGGSLRLSCAASGSDFSINAIGWYRQAPGKQRDMVAGFTGDGVTTYADSVKGRFTISRDNAKNTVYLQMNSLKPEDTAVYYCAADVKIGGDYEWFWGQGTQVTVKP
# notes: as for B1
# B10: hz5A7v2 (Fc fusion)
# VHH: EVQLVESGGGEVQPGGSLRLSCAASGSDFSINAIGWYRQAPGKQRDMVAGFTGDTVTTYAESVKGRFTISRDNAKNTVYLQMSSLRAEDTAVYYCAADVKIGGDYEWFWGQGTLVTVKP
# notes: as for B1
# B11: hz5A7v3 (Fc fusion)
# VHH: EVQLVESGGGEVQPGGSLRLSCAASGSDFSINAIGWYRQAPGKQRDMVAGFTGEGVTTYAESVKGRFTISRDNAKNTVYLQMSSLRAEDTAVYYCAADVKIGGDYEWFWGQGTLVTVKP
# notes: as for B1
# B12: hz5A7v4 (Fc fusion)
# VHH: EVQLVESGGGEVQPGGSLRLSCAASGSDFSINAIGWYRQAPGKQRDLVAGFTGDGVTTYAESVKGRFTISRDNAKNTVYLQMSSLRAEDTAVYYCAADVKIGGDYEWFWGQGTLVTVKP
# notes: as for B1
# B13: hz5A7v5 (Fc fusion)
# VHH: EVQLVESGGGEVQPGGSLRLSCAASGSDFSINAIGWYRQAPGKQRDWVAGFTGDGVTTYAESVKGRFTISRDNAKNTVYLQMSSLRAEDTAVYYCAADVKIGGDYEWFWGQGTLVTVKP
# notes: as for B1
# B14: hz5A7v6 (Fc fusion)
# VHH: EVQLVESGGGEVQPGGSLRLSCAASGSDFSINAIGWYRQPPGKQRDMVAGFTGDGVTTYAESVKGRFTISRDNAKNTVYLQMSSLRAEDTAVYYCAADVKIGGDYEWFWGQGTLVTVKP
# notes: as for B1
# B15: 3C5 (Fc fusion)
# VHH: QVQLVQSGGGLVQAGGSLRLSCAASGSIFSINAMGWYRQPPGKQRELVAGFTGDGSTKYADSVKGRFTISRDNAKNTVYLQMNSLKPEDTAVYYCAADVQLLNSDYEFYWGQGTQVTVKP
# notes: as for B1
# B16: hz6C5v1 (Fc fusion)
# VHH: EVQLVESGGGEVQPGGSLRLSCAASEITFSDKTVGWYRQAPGKQRVLVAVISNVDSTNYAESVKGRFTISRDNAKNTLYLQMSSLRAEDTAVYYCHARDFENEYWGQGTLVTVKP
# notes: as for B1
# B17: hz6C5v2 (Fc fusion)
# VHH: EVQLVESGGGEVQPGGSLRLSCAASEITFSDKTVGWYRQAPGKQRVLVAVISNVDSTNYAESVKGRFTISRDNAKNTVYLQMSSLRAEDTAVYYCHARDFENEYWGQGTLVTVKP
# notes: as for B1
# B18: hz6C5v3 (Fc fusion)
# VHH: EVQLVESGGGEVQPGGSLRLSCAASEITFSDKTVGWYRQAPGKQRVLVAVISNVDSTNYAHSVKGRFTISRDNAKNTVYLQMSSLRAEDTAVYYCHARDFENEYWGQGTLVTVKP
# notes: as for B1
# B19: hz6C5v4 (Fc fusion)
# VHH: EVQLVESGGGEVQPGGSLRLSCGASEITFSDKTVGWYRQAPGKQRVLVAVISNVDSTNYAESVKGRFTISRDNAKNTVYLQMSSLRAEDTAVYYCHARDFENEYWGQGTLVTVKP
# notes: as for B1
# B20: hz6C5v5 (Fc fusion)
# VHH: EVQLVESGGGEVQPGGSLRLSCAASEITFSDKTVGWYRQAPGKQRVLVAVISNVESTNYAESVKGRFTISRDNAKNTVYLQMSSLRAEDTAVYYCHARDFENEYWGQGTLVTVKP
# notes: as for B1
# B21: hz6F1v1 (Fc fusion)
# VHH: EVQLVESGGGEVQPGGSLRLSCAASEIIFSDKTVGWYRQAPGKQRVLVAVISNVDSTNYAESVKGRFTISRDNAKNTLYLQMSSLRAEDTAVYYCYARDFESEYWGQGTLVTVKP
# notes: as for B1
# B22: hz6F1v2 (Fc fusion)
# VHH: EVQLVESGGGEVQPGGSLRLSCAASEIIFSDKTVGWYRQAPGKQRVLVAVISNVDSTNYAESVKGRFTISRDNAKNTVYLQMSSLRAEDTAVYYCYARDFESEYWGQGTLVTVKP
# notes: as for B1
# B23: hz6F1v3 (Fc fusion)
# VHH: EVQLVESGGGEVQPGGSLRLSCAASEIIFSDKTVGWYRQAPGKQRVLVAVISNVDSTNYAQSVKGRFTISRDNAKNTVYLQMSSLRAEDTAVYYCYARDFESEYWGQGTLVTVKP
# notes: as for B1
# B24: hz6F1v4 (Fc fusion)
# VHH: EVQLVESGGGEVQPGGSLRLSCGASEIIFSDKTVGWYRQAPGKQRVLVAVISNVDSTNYAESVKGRFTISRDNAKNTVYLQMSSLRAEDTAVYYCYARDFESEYWGQGTLVTVKP
# notes: as for B1
# B25: hz6F1v5 (Fc fusion)
# VHH: EVQLVESGGGEVQPGGSLRLSCAASEIIFSDKTVGWYRQAPGKQRVLVAVISNVDSTNYAESVKGRFTISRDNAKNTVYLQMSSLRAEDTAVYYCYARDFESEYWGRGTQVTVKP
# notes: as for B1
# B26: hz6F1v6 (Fc fusion)
# VHH: EVQLVESGGGEVQPGGSLRLSCAASEIIFSDKTVGWYRQAPGKQRVLVAVISNVESTNYAESVKGRFTISRDNAKNTVYLQMSSLRAEDTAVYYCYARDFESEYWGQGTLVTVKP
# notes: as for B1
# B27: hz6F1v7 (Fc fusion)
# VHH: EVQLVESGGGEVQPGGSLRLSCAASEIIFSDKTVGWYRQAPGKQRVLVAVISNVDATNYAESVKGRFTISRDNAKNTVYLQMSSLRAEDTAVYYCYARDFESEYWGQGTLVTVKP
# notes: as for B1
# B28: hz8E7v1 (Fc fusion)
# VHH: EVQLVESGGGEVQPGGSLRLSCAASEIITSDKSVGWWRQAPGKQRNLVAGISNVGSTNYAESVKGRFTISRDNAKNTLYLQMSSLRAEDTAVYYCYARDFENEYWGQGTLVTVKP
# notes: as for B1
# B29: hz8E7v2 (Fc fusion)
# VHH: EVQLVESGGGEVQPGGSLRLSCAASEIITSDKSVGWWRQAPGKQRNLVAGISNVGSTNYAQSVKGRFTISRDNAKNTLYLQMSSLRAEDTAVYYCYARDFENEYWGQGTLVTVKP
# notes: as for B1
# Target: T1, human DLL3 (Delta-like ligand 3)
# Assay: flow cytometry, sdAb-Fc titrated on SHP-77 cells (DLL3 positive), APC anti-human Fc secondary
# Protocol: FIGS. 2A-L set forth a series of graphs depicting the ability of sdAb and humanized variants thereof targeting DLL3 to bind cell surface DLL3.
# Specificity and relative affinity were assessed for purified sdAb-Fcs on DLL3-expressing cells. […] A titration series of the fusion protein was incubated with the DLL3-expressing cell lines (approximately 2.5×10⁴ to 5×10⁴ cells/well) for 30 minutes at 4 degrees Celsius in FACS Buffer (PBS 1% BSA, 0.1% NaN₃ pH 7.4) in 96-well plates. Following three wash steps in FACS buffer, an APC-conjugated anti-human Fcγ specific secondary antibody (Jackson ImmunoResearch) was added and incubated for 30 minutes at 4 degrees Celsius. Following three additional wash steps in FACS buffer bound antibody was detected via flow cytometry (IQue Intellicyte).
Binder,binding result,EC50 (read off the curve)
B1,binds,–
B2,binds,–
B3,binds,–
B4,binds,–
B5,binds,–
B6,binds,–
B7,binds,–
B8,binds,–
B9,binds,–
B10,binds,–
B11,binds,–
B12,binds,–
B13,binds,–
B14,binds,–
B15,binds,–
B16,–,~2 nM
B17,binds,–
B18,binds,–
B19,binds,–
B20,binds,–
B21,–,~0.5 nM
B22,binds,–
B23,binds,–
B24,binds,–
B25,binds,–
B26,binds,–
B27,binds,–
B28,binds,–
B29,binds,–
